How the values were obtained:
Format in all cases: cell-based, human
[1] = tested on: R-loops foci in U2OS cells; test: Quantification of RHINO R-loops foci after transcription inhibition with triptolide
Text: (A) Illustration of RHINO structure (left) and DNA:RNA hybrid labelling in an R-loop behind a transcribing RNA Pol II complex (right). The positions of the amino acids substituted in the RHINO mutants are indicated by red […]) and blue ([…]) asterisks. (B) Confocal microscopy images of RHINO expressed in U2OS cells together with mCherry-H2B to mark the cell nucleus and a corresponding max. intensity projection. RHINO spots throughout the nucleoplasm (highlighted in inset image) and intense labelled foci in the nucleoli are shown. (C) Comparison of RHINO and S9.6 antibody labelling of DNA:RNA hybrids. The nucleolar signals of S9.6 and RHINO are mutually exclusive (inset). (D) Expression of two RHINO mutant constructs and mCherry-histone-H2B. […] (E) Max. intensity projections of live U2OS cells expressing RHINO alone (left) or co-expressing mScarlet-i tagged human RNase H1 (right) and quantification of RHINO foci for each condition. (F) Quantification of RHINO foci upon use of a rapid inducible RNase H1. […] Quantification of RHINO foci before and 1 h after TA addition. (G) Max. intensity projections of random live U2OS cells expressing RHINO before and after 1 h incubation with Triptolide and quantification of RHINO foci number. (H) Max. intensity projections of the same live U2OS cells expressing RHINO before and after 1 h incubation with Triptolide and quantification of RHINO foci number. […]

[2] = tested on: telomeric R-loops in U2OS cells; test: FRAP at labelled telomeres
Text: (A) Labelling of nucleolar R-loops in live U2OS cells. Nucleoli are labelled by a red fluorescent nucleolar marker. Bright RHINO foci in several nucleoli are indicated with arrowheads. (B) Dissecting R-loop localization in nucleolar substructures. U2OS cells expressing RHINO were fixed and stained with an anti-UBF antibody marking the fibrillar centres/dense fibrillar component interface. Display of two super-resolution microscopy image sets acquired with structured illumination (top) and Airyscan 2 technology (bottom). (C) Measurements of nucleolar R-loops dynamics by FRAP on RHINO foci inside nucleoli. The fluorescence within the red circle was bleached (false colour images) and the recovery monitored over time. […] (D) Labelling of Tel-R-loops in live U2OS cells co-expressing RHINO and iRFP-TRF2. Several telomeres show directly adjacent or overlapping labelling of R-loops (magnified details 1-5). […] (E) Measurements of Tel-R-loops dynamics by FRAP of wild-type RHINO compared to both mutants and diffuse GFP at labelled telomeres. False colour images show the wild-type RHINO labelled cell with the bleach region (red circle). The curves display the mean intensity (+/−SD) of RHINO foci, RHINO mutants and diffuse GFP as control. […]

[3] = tested on: nucleolar R-loops in U2OS cells; test: FRAP on individual nucleolar RHINO foci; settings: in 200 seconds
Text: (A) Labelling of nucleolar R-loops in live U2OS cells. Nucleoli are labelled by a red fluorescent nucleolar marker. Bright RHINO foci in several nucleoli are indicated with arrowheads. (B) Dissecting R-loop localization in nucleolar substructures. U2OS cells expressing RHINO were fixed and stained with an anti-UBF antibody marking the fibrillar centres/dense fibrillar component interface. Display of two super-resolution microscopy image sets acquired with structured illumination (top) and Airyscan 2 technology (bottom). (C) Measurements of nucleolar R-loops dynamics by FRAP on RHINO foci inside nucleoli. The fluorescence within the red circle was bleached (false colour images) and the recovery monitored over time. […] (D) Labelling of Tel-R-loops in live U2OS cells co-expressing RHINO and iRFP-TRF2. […]
Owing to the lack of robust tools to image and collect quantitative parameters of R-loops in live cells, a clear understanding of R-loops dynamics and of their specific kinetics at distinct genomic loci is scarce. […] To investigate the dynamics of nucleolar R-loops, fluorescence recovery was performed after photobleaching (FRAP) experiments in individual nucleolar RHINO foci (FIG. 2C). We observed a rapid turnover of fluorescent RHINO molecules, which restored 90% of the initial fluorescence intensity in 200 seconds (FIG. 2C).

Row | Molecule | number of R-loops foci detected by RHINO ([1]; one-hour treatment, bulk cell population of U2OS cells) | reduction in the number of R-loops foci ([1]; same RHINO-expressing cells imaged before and one hour after treatment) | fluorescence recovery relative to initial intensity ([2]; major fraction of telomeric R-loops, within 10-15 seconds after photobleaching) | fluorescence recovery, second population of telomeric R-loops ([2]; other (minor) population of telomeric R-loops) | restored initial fluorescence intensity after photobleaching [3]
1 | CC(C)[C@]12O[C@H]1[C@@H]1O[C@]13[C@]1(O[C@H]1C[C@H]1C4=C(CC[C@@]13C)C(=O)OC4)[C@@H]2O [triptolide] | significantly decrease | 46% |  |  | 
2 | RHINO: genetically encoded RNA:DNA hybrid-binding sensor; fusion protein comprising 3 HBDs and a reporter domain (e.g., a fluorescent protein) (protein) MFYAVRRGRKTGVFLTWNECRAQVDRFPAARFKKFATEDEAWAFVRKSASVDGTAGPGSAVFYAVRRGRKTGVFLTWNECRAQVDRFPAARFKKFATEDEAWAFVRKSASVDGTAGPGSAVFYAVRRGRKTGVFLTWNECRAQVDRFPAARFKKFATEDEAWAFVRKSASVDGTAGPGSTGVTGKLDPPVATMVSKGEEDNMASLPATHELHIFGSINGVDFDMVGQGTGNPNDGYEELNLKSTKGDLQFSPWILVPHIGYGFHQYLPYPDGMSPFQAAMVDGSGYQVHRTMQFEDGASLTVNYRYTYEGSHIKGEAQVKGTGFPADGPVMTNSLTAADWCRSKKTYPNDKTIISTFKWSYTTGNGKRYRSTARTTYTFAKPMAANYLKNQPMYVFRKTELKHSKTELNFKEWQKAFTDVMGMDELYK |  |  | 88% | little to no recovery | 90%
